Measurements from the domain aggregation screens of Martell et al. (2025).

Test: soluble fraction after stress (log2 fold change); higher = more stays soluble; pooled small domains, quantitative proteomics
Settings: stress: pH 4
Summary of the method: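 Pooled custom libraries of small protein domains were subjected to pH 4 and measured by high-throughput quantitative proteomics. The log2 fold change in soluble amount per domain is reported, higher values meaning more remained soluble. This is used as a measure of aggregation propensity.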
With “HMGGGTPEERLATLAAIAERQEMLLERLGPNNPLVSLGQYSRTLSRMVQLAGFKDASQYFNELPLDFQMPE” the “soluble fraction (log2)” value was -0.437.
With “HMTAKQDLDSIYRHLVATRKSIAENPKMVSSIDDPQALIKMLDYAIQYFYTDKRDEALAVLEKNEEQLNFR” the “soluble fraction (log2)” value was -0.206.
For “HMGRDWKTDLLNLATARGWGDVSYEVTGEGPDHARVYTAVAIVANQKTGTGVGPSKKEAERLAAEQAYRML”, the “soluble fraction (log2)” value was 0.132.
For “HMEISLAETLRSSLHMILGWYQNTGDKKLLELIRLHLQAYVNTGNSLNPEMEEIRAALETLGEGKEAFRP”, the “soluble fraction (log2)” value was -1.02.
For “HMLTTMSSQWKPSLDAIEILEKSGIAYSFIEDAIPEFVLYWRERGISHGAWNTKFVEHIRKQWAKFEAS”, the “soluble fraction (log2)” value was 0.21.
In the case of “HMKNSMANVQARREKILSAVDQSEPVAVEGLAQRFNVSITTLRRDLKALSDMGQVKWHHGLVERT”, the “soluble fraction (log2)” value was 0.164.
In the case of “HMENYQIETFVKFIEESTGEDGVAFEDLFQNFTSRPAVITMFLALLEALRRNSIRIFQKEEFSQILIYPK”, the “soluble fraction (log2)” value was -1.21.
In the case of “HMPKDMAKRASILTAASKLFVQHGYGGVSMDQIAAEAGVSKLTVYSHYGDKDSLFAAAVQAH”, the “soluble fraction (log2)” value was 0.163.
In the case of “HMINKDNLIEEILKFINTKIADISSNNPLFDIVAKPYISKVVTNNVSKLDKALSLIADDKGMVDADGLLT”, the “soluble fraction (log2)” value was -0.295.
For “HMAVFRVGDKVKSMEGMIGEVRGINGRLIQVATPYGLRDYYPHQITKVENPLAAAPAPLNEEA”, the “soluble fraction (log2)” value was 0.0157.
With “HMTGMDALIGRRVFVSEEILPGDAGGRVAVDGDSWRAISVGTAKPIPAGTEVRIHGYKSLILEVEPI” the “soluble fraction (log2)” value was 0.0974.
For “HMSRVTVDVNPDVLQWAIDKKGKGDIKNKFPKIDEWLNGISKPTIHQLENFAKYVSVPFGYLLLSKPPVE”, the “soluble fraction (log2)” value was 0.00473.
With “HMTANTLDLTYSQFLENVKNGSVNDVTIRGNNVSGNFSDGRKFKTYAVNDPTLVEKLTKMGVNISAAPL” the “soluble fraction (log2)” value was 0.14.
For “HMGKGVDKIMKMADDYSYGKIAGKTVDVMTAKLFQAAYNKAPQKAKDKVDKMNEKQLYIFMMNLWKRF”, the “soluble fraction (log2)” value was 0.0998.
In the case of “HMISEWDAAYSYAKQYYEENGHLFVPKKYVTSEGAALGKWIWEQRDSYLGLSSYKISDKKIEMLEDIGMFW”, the “soluble fraction (log2)” value was -2.73.
For “HMAMNITQRHQEILAVIKQEKHITVSEISKLLGVSEVTIRKDFNYLEEKNLIYRHHGGASLNN”, the “soluble fraction (log2)” value was -0.0786.
With “HMKKIDVEVVRSQLIAWMADNGKSQAEVSKSMGISASALSMFIKGTYTGDNEQIGRKAAALMDLVHRQSA” the “soluble fraction (log2)” value was 0.189.
With “HMGDTPVDFSEFIRWVDTGVVDRVELTGNEIVGTSSSGERFSTYAPPQYEGLGNKLIERDIVVVATAA” the “soluble fraction (log2)” value was -1.21.
With “HMNSKMTYSELITSMENKEVESVKISSSGDVASVKLKNSKTEKEVKIPSLDSFMTYTEQYLKTGEITLEE” the “soluble fraction (log2)” value was -0.0537.
With “HMANYHDIAADLRSKINHGFYEEEKKLPKQSELAADYQTSRVTIQKALNILQMEGIIYGKKGTGTFIRDSY” the “soluble fraction (log2)” value was 0.0346.
With “HMRTMRHLSVPRQETQQILSQLKAEFALPQGARVQPDPSDSKRTLIPVKEGAESELLSRYPVVHAEP” the “soluble fraction (log2)” value was 0.11.
For “HMLEQEQFESKLLKAINNINETQRIAFLMHRIDGKKYAEIASELNISVKAVEKRIHLALIELKKEIENF”, the “soluble fraction (log2)” value was -0.396.
In the case of “HMEVPMELPRQLRANRERLGLSQEDVAHAIYVSRQTMSSWERGKTYPDVQSLMLLSHLFGISIDELVKGDV”, the “soluble fraction (log2)” value was -0.338.
With “HMEKLNYSISNEEQGQRIDKYLSLMIEGKSRSFIQGLIDDKKVMANGKVIKSNYKLKNNDEITVEMPDPI” the “soluble fraction (log2)” value was 0.0918.
With “HMEYKKKIGELLIDGNKKLKAANIDTYILDTQLLLGKVLGKDKLYLITNKDEEVSNFKEREFYSLIEKRI” the “soluble fraction (log2)” value was -0.304.
For “HMKSIETVAELVAELKKLNPNAKISNIDGTYTLEEDINTITLPKDFKYDNNLGINNKIDDFTPYISLDVKA”, the “soluble fraction (log2)” value was -0.132.
For “HMQDPVWVDWLGENDWFQKDPKRRGLANGYSEILRAEQPELVGRPFLDEVTRRVQADFPELFG”, the “soluble fraction (log2)” value was -1.33.
With “HMKDASEFLGAKGKTITPLRPTGAAVINGEKVDVLAEGEFIPKNAEIVVIKVEGSKIIVRNANN” the “soluble fraction (log2)” value was -0.0474.
With “HMKEFEINSQWKPSLEVYDILSVKGGISRNFIEDSIPEFVLYWRGRGDKSNTWDSKFVQHVKRQWNFYSGL” the “soluble fraction (log2)” value was -2.41.
For “HMIIVMKRNATETQIDHVVRWVESIGYRAHRSNGTEQTVVKAVGGERGGEELKYLAALSGVEKVVPIR”, the “soluble fraction (log2)” value was 0.141.
With “HMGGAVQIAEQIAARIKDGALRPGELLPPVRQLAAELEVNPNTVASAYARLRDAGLVATRGRAGTVVLEPP” the “soluble fraction (log2)” value was -0.246.
For “HMLPAGAAAPLEDGSAPEGYTVKGNADSGLYHEPDGRWYDATVAEFWFKTAADAEAAGFRKAGS”, the “soluble fraction (log2)” value was -0.741.
With “HMDYYSILGVDRNATGEDIKKAFKKKAMKYHPDRNPDNKESERKFKEAKEAYDTLSNPQKKSMYDQFGT” the “soluble fraction (log2)” value was 0.141.
For “HMKIDELKAYLFQSVRVKNPHTQEYDTLKIIELNYYQDKIKAKLKNSDDDYITEMIFESIKHLQNFLG”, the “soluble fraction (log2)” value was -1.98.
In the case of “HMYEGLPVTLIIDGRVIEANLAKANRDMAWLERELANSGVRSHHDVFFATLDSRGQLYYQVKN”, the “soluble fraction (log2)” value was -1.35.
For “HMNADAIIGRMGKVTEPITPDGYGRVEIDGDSWKATAVGGVAIAEGTRVSVVSLDSIIITVKTV”, the “soluble fraction (log2)” value was -0.117.
In the case of “HMGFSDDEHNALADADLKKALEVTTNKSETQYNIAKLIYSYIISLGDKKPYGDWSYDKALSIIHDA”, the “soluble fraction (log2)” value was -0.00141.
With “HMSAPAKKPKIKVDLSKVHAGTIVRHKGYGLGQVKGIDGAIIVVTFDGVDKKFQFPGGFENGFLFLTED” the “soluble fraction (log2)” value was -1.21.
In the case of “HMQLASILDDIPGIGKKRKENLLTHFGSFSKIQSADIDALAEVPGISRDLAETIHTYLKTHQ”, the “soluble fraction (log2)” value was -0.0521.
In the case of “HMSTVIENVFKNFEVYEIKKGDTFYNIEKRFGVNRQELLVLNPELKEGLKLGMVLKIKEIIP”, the “soluble fraction (log2)” value was 0.192.
With “HMDIASNQIQGIKDSVGGDENYSKMVAWALESLPAEEVKAFNDLTETANAPAIKMAVQGLYSQYNNAM” the “soluble fraction (log2)” value was -0.9.
With “HMENMRLILASNLRRIREERRLSLNKVSELTGVSKSMLGQIERGESNPTLQTVWKIANGLRVSLTDLTEVP” the “soluble fraction (log2)” value was 0.252.
In the case of “HMPVGSIGERLKALRLKAGLTQEEVGQHVHISKQTLYKYENGIVTNIPADKIELLATIYSVTPAYIMGWA”, the “soluble fraction (log2)” value was -0.118.
With “HMGLNELQVKLNEAMQRLSLKHRTVVVMHDIEGIPHDEIAKIVGVSVGTIRSRLFYARRQLQADLGEY” the “soluble fraction (log2)” value was -0.896.
For “HMEENNIVIYITGAVKKEGIYEIKENSRISDAIEAAGGLLENANIKDINLAYIIEDGVKIYIPTNEEVNK”, the “soluble fraction (log2)” value was -1.35.
With “HMIKIDESTLSEDELKIFEILKIEDKNIENIAIESKILPGKLLATLMNMEMKKIVVQYPGKVFGLNRKLK” the “soluble fraction (log2)” value was 0.0566.
In the case of “HMDAPKPDIGMSTDQIRSSLGQPGSQTRLETGGGRIYELWIYLYPDGKELQIYFDNAKVVKMEALS”, the “soluble fraction (log2)” value was -0.419.
In the case of “HMRKLTDRQRQILDLIKTIIAETGAPPTRAEISTALGFKSANAAQEHLQALAQKGMIDLVSGASRGIRLRG”, the “soluble fraction (log2)” value was -0.194.
In the case of “HMIDIGSKIKKLRSKKSIEIGKKYTGAMLANELGISRSYLGDIESGRTVPNEIILGKIADIFDVDIYELIG”, the “soluble fraction (log2)” value was -0.405.
For “HMKNKVTVPKVEGMDKEEAIQALNEVGLGYKAVMQSSDSVAEGKVISQGTAAGKKVDKNTQIIITVSGG”, the “soluble fraction (log2)” value was ≥ 0.43.
For “HMESEAKLGVAFNGKTRFDMTFPADADNKTIEEAVLADERAQKYLEGFQVAKVIIVPKRMVNIVLK”, the “soluble fraction (log2)” value was ≥ 0.43.
For “HMETVVTEVKTTDVVNIRTSDSETADKLSKAAIGDTFPLLEERGNGWSKVAYNGEEAFIKSDYLEPSKTE”, the “soluble fraction (log2)” value was -0.654.
In the case of “HMNPNPFVNLSPRELEVLNLLFKGYGVLEISNELNIGQTTASTFKSRILKKTSTHSVVELIKLAEQYGFIP”, the “soluble fraction (log2)” value was -0.847.
For “HMTKNIIVTTSVKTSDELVEVAKNHALNLELDFNYRNKKTIKELLSSFDGLVVIYKNKISYFEDNSELF”, the “soluble fraction (log2)” value was 0.22.
For “HMSIGPQMAGRRVLSGDLIARLEAFEGTVVLGRGVAREDALLIATQAGHVRWEPASRRLWVDSTA”, the “soluble fraction (log2)” value was -0.0304.
For “HMQSNDAGELEAVVKGIIDANPKVVADYLAGNQKVVSFFVGQAMKATKGKANPKMVSEILGKLL”, the “soluble fraction (log2)” value was ≥ 0.43.
With “HMEDKPITKEQKQAMFALLREHFSGDEGNAVYTAVLEREGLAPGDKIMSSVYDRLIDGINEAIRQKLEAGA” the “soluble fraction (log2)” value was -0.133.
For “HMPQNLQDQLFELILSRYPRRADAVEDLANILHLGKDPVYRRLRGDTFLSPLEISTLALHFRISLDALIV”, the “soluble fraction (log2)” value was -1.51.
With “HMENRILLSEDSLKHLAQDIPIDIIEKLSVLKDQIYHRYDDFNSIVQGLLGGENYLKYKDNILSFVEQ” the “soluble fraction (log2)” value was -0.311.
With “HMTSAIAEGTVIRLTQSTNIRESMSEDAPKVATAFSGEKVTVIMSYAEGWTKVTYGDKTGYIKTELL” the “soluble fraction (log2)” value was -0.443.
For “HMGASLVIVPGAGFLRVSASSQTRLDVYSITGMRVRSVDFEPGTTEIELPAGFYIAGGRKFFV”, the “soluble fraction (log2)” value was -0.124.
For “HMASPRVWKDASSGRTLTGEFVELTKDAVKVRRANGDVVSLPLSRLTEEDITFAKGASETGGA”, the “soluble fraction (log2)” value was 0.0565.
With “HMNNGAEIGAEIRSLRKARGLTLEDLAAKIGRSVGYISQVERGISPLTIPNLKAIAEVLGVGINWFFRGEA” the “soluble fraction (log2)” value was 0.228.
For “HMSIEHVPGYTTLSKREQEIVHALLTRKTPEELADDLSISINTLNKHISHIYHKLGIRGRMQLFDYA”, the “soluble fraction (log2)” value was -0.0894.
In the case of “HMAQLVVTVDKLNKRTAIPVTLSDKSSNDSVVEKGFRFEGFPFVNTATNGKKWYKDREGFFYWAGGLMEEA”, the “soluble fraction (log2)” value was -0.0297.
In the case of “HMSMSKISNLLEIMMIIQYKGLTTASELAQSLGVDKKTVYRYINSLSKANIPIYTKKGRYGGFYIDKNF”, the “soluble fraction (log2)” value was 0.138.
For “HMYNSYALTARELELVNYVLKGNSRREMAEDSGLKENTVASYMKRLYRKIKVHSRKELKELFM”, the “soluble fraction (log2)” value was -0.422.
With “HMIADSSSIHQDAKQQLHSYLRTNIQPLMRAGKQLDLKDILHHVTIRKPKLVQQLGMKQVQHMVQVLLD” the “soluble fraction (log2)” value was 0.184.
In the case of “HMVDPAFLAWQQKPENTWFGTDRRKTALAIAIAEEIRNDPANSNLVGAAFYARVAEETEETLN”, the “soluble fraction (log2)” value was -1.23.
In the case of “HMNTPALRQRTQDVPALLIHFAKYFATKGQTPISFAPDFLEALKDYPWPGNVRELRNLVESMVV”, the “soluble fraction (log2)” value was -0.0956.
For “HMQEIKPEPISDGRVWKEGMWATTPLGIEGQLLSDPDEKGMVQLGYGNMRININIQDLDPSR”, the “soluble fraction (log2)” value was -0.207.
For “HMFPNSFSEREKEVVDLLLQAKSNKQIAFSLGITNRTVEYHLGNIFAKLGVSSRSEAILTITNYKNQ”, the “soluble fraction (log2)” value was -1.27.
For “HMRQSQEVSGGERYRRLTAYLDTHPFITRKEYSGITGLLKNKALNDLNLLVNKGYLEAMGRGSHKVYVRPM”, the “soluble fraction (log2)” value was 0.321.
For “HMVGAEDISKPMNLGALMRTAHAFGASFFFTINAHPKVRHAYNSDTSRSFDHMPYYPWDTMEE”, the “soluble fraction (log2)” value was -0.287.
With “HMQKLSPKQRRGNIIELIKENPTITAKNISTIFNLNQRTIERDLAKLTEEGYIKYEGSSKDGKWVFL” the “soluble fraction (log2)” value was ≥ 0.43.
